Experimental data from publication PMC7745056.

Molecular target: T1, IiWRKY34 (Isatis indigotica, UniProt A0A6G8R7I5 1-302)
T1 sequence: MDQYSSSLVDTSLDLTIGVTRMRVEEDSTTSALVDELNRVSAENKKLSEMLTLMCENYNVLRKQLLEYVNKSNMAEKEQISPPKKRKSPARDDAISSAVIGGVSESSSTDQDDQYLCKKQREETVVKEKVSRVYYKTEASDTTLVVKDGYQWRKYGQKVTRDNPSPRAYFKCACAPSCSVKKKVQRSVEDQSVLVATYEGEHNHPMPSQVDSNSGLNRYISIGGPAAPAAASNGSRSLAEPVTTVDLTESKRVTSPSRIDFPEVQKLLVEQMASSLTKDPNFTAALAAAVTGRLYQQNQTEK
Assay: EMSA

B1: Ii4CL3 promoter mutated W-box probe (Ii4CL3mpF/mpR) (dsDNA)
DNA 1: TCCGATTTTTTTCATAATTAATTTGAAATGTGCGGTTGATTTTTTTCCAA
DNA 2: TTGGAAAAAAATCAACCGCACATTTCAAATTAATTATGAAAAAAATCGGA
  binding result: no binding
